Data from US20240376151A1, “STAPLED PEPTIDES AND METHODS THEREOF” (FOG PHARMACEUTICALS, INC., priority 2022, published 2024).

Experiments:
beta-catenin = target: T1, beta-catenin (Homo sapiens, UniProt P35222); assay: Phage Library Screening with NGS, beta-catenin; type: binding; conditions: for Target Concentration 10 (phage screen NGS readout): beta-catenin target concentration 10; for Target Concentration 10 (phage screen NGS readout) / Target Concentration 30 (phage screen NGS readout) / Target Concentration 100 (phage screen NGS readout) / Target Concentration 300 (phage screen NGS readout): no competitor; for Target Concentration 30 (phage screen NGS readout): beta-catenin target concentration 30; for Target Concentration 100 (phage screen NGS readout): beta-catenin target concentration 100; for Target Concentration 300 (phage screen NGS readout): beta-catenin target concentration 300; for Target Concentration 1000 (phage screen NGS readout): beta-catenin target concentration 1000
T1 construct: made in house; host or cells: E. coli BL21 (DE3) pLysS
T1 sequence (P35222 134-665): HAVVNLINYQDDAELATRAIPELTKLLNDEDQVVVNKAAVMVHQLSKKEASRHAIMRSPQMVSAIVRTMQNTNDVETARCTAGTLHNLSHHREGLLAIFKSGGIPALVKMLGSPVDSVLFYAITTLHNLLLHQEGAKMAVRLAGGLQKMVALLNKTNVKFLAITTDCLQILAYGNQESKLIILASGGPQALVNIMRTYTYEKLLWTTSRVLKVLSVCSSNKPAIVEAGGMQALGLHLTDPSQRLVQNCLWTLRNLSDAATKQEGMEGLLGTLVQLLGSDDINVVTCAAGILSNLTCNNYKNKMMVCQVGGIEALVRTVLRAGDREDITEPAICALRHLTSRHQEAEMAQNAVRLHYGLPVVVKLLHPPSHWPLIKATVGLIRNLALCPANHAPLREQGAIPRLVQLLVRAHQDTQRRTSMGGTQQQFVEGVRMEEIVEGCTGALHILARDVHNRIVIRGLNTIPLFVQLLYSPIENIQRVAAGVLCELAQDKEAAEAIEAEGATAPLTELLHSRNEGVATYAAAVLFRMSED

RNF31 PUB domain = target: T2, RNF31 PUB domain (Homo sapiens, UniProt Q96EP0); assay: Phage Library Screening with NGS, RNF31 PUB domain; type: binding; conditions: for Phage library screen NGS readout, Target Concentration 10 / Phage library screen NGS readout, Target Concentration 30 / Phage library screen NGS readout, Target Concentration 100 / Phage library screen NGS readout, Target Concentration 300 / Phage library screen NGS readout, Target Concentration 1000: RNF31 PUB domain clusters C41-C45; for Phage library screen NGS readout, BLANK: clusters C41-C45
T2 construct: MBP-TEV (N, cleaved yes); made in house; host or cells: E. coli BL21 (DE3) pLysS
T2 sequence (Q96EP0 1-179): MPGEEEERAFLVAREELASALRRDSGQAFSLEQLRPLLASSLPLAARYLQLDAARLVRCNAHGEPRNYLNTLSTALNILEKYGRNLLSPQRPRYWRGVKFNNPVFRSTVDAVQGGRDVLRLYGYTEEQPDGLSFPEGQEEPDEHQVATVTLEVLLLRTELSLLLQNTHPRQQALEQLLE

[1] = target concentration 1000, first column
[2] = target concentration 1000, second column

Phage library screen NGS readout, Target Concentration 10 (RNF31 PUB domain) | Phage library screen NGS readout, Target Concentration 30 (RNF31 PUB domain) | Phage library screen NGS readout, Target Concentration 100 (RNF31 PUB domain) | Phage library screen NGS readout, Target Concentration 300 (RNF31 PUB domain) | Phage library screen NGS readout, Target Concentration 1000 (RNF31 PUB domain; [1]) | Phage library screen NGS readout, Target Concentration 1000 (RNF31 PUB domain; [2]) | Phage library screen NGS readout, BLANK (RNF31 PUB domain; column 1 of 5) | Phage library screen NGS readout, BLANK (RNF31 PUB domain; column 2 of 5) | Phage library screen NGS readout, BLANK (RNF31 PUB domain; column 3 of 5) | Phage library screen NGS readout, BLANK (RNF31 PUB domain; column 4 of 5) | Phage library screen NGS readout, BLANK (RNF31 PUB domain; column 5 of 5) | Sequence | further results
0 | 0 | 0 | 4 | 10 | 13 | 0 | 0 | 0 | 0 | 0 | DPASHMCLEAAVMCTYD | –
0 | 0 | 1 | 4 | 13 | 6 | 1 | 2 | 2 | 1 | 0 | DPAYWQCIYAAWDCDQM | –
0 | 0 | 0 | 2 | 7 | 7 | 0 | 0 | 0 | 1 | 0 | DPAIWECVSAAAVCMTY | –
0 | 0 | 3 | 3 | 26 | 12 | 0 | 0 | 1 | 0 | 0 | DPANFTCRVAADVCSTY | –
0 | 0 | 0 | 2 | 8 | 8 | 0 | 1 | 1 | 0 | 0 | DPAFMDCVFAAAVCATY | –
0 | 0 | 4 | 61 | 350 | 353 | 1 | 0 | 3 | 1 | 0 | DPARDWCLYAAYDCYTA (Ac-DPARDWCLYAAYDCYTA-NH2; not fully specified (bridges); cysteine pairing not given here) | –
1 | 0 | 0 | 1 | 9 | 4 | 1 | 2 | 2 | 0 | 0 | DPAHTWCMYAAFDCFES | –
0 | 1 | 0 | 2 | 6 | 7 | 0 | 0 | 0 | 0 | 0 | DPAYSLCISAAVECTYY | –

More lines, now with the values behind:

Sequence | Phage library screen NGS readout, Target Concentration 10 (RNF31 PUB domain) | Phage library screen NGS readout, Target Concentration 30 (RNF31 PUB domain) | Phage library screen NGS readout, Target Concentration 100 (RNF31 PUB domain) | Phage library screen NGS readout, Target Concentration 300 (RNF31 PUB domain) | Phage library screen NGS readout, Target Concentration 1000 (RNF31 PUB domain; [1]) | Phage library screen NGS readout, Target Concentration 1000 (RNF31 PUB domain; [2]) | Phage library screen NGS readout, BLANK (RNF31 PUB domain; column 1 of 5) | Phage library screen NGS readout, BLANK (RNF31 PUB domain; column 2 of 5) | Phage library screen NGS readout, BLANK (RNF31 PUB domain; column 3 of 5) | Phage library screen NGS readout, BLANK (RNF31 PUB domain; column 4 of 5) | Phage library screen NGS readout, BLANK (RNF31 PUB domain; column 5 of 5) | further results
DPASWRCEHAALNCQID | – | – | – | – | – | – | – | – | – | – | – | Target Concentration BLANK (phage screen NGS readout) (beta-catenin; first column): 0; Target Concentration BLANK (phage screen NGS readout) (beta-catenin; fourth column): 0; Target Concentration BLANK (phage screen NGS readout) (beta-catenin; second column): 0; Target Concentration BLANK (phage screen NGS readout) (beta-catenin; third column): 0; Target Concentration 10 (phage screen NGS readout) (beta-catenin): 0; Target Concentration 30 (phage screen NGS readout) (beta-catenin): 6; Target Concentration 100 (phage screen NGS readout) (beta-catenin): 20; Target Concentration 300 (phage screen NGS readout) (beta-catenin): 18; Target Concentration 1000 (phage screen NGS readout) (beta-catenin; first 1000 column): 21; Target Concentration 1000 (phage screen NGS readout) (beta-catenin; second 1000 column): 57
DPAQNICEWAALHCDLI | – | – | – | – | – | – | – | – | – | – | – | Target Concentration BLANK (phage screen NGS readout) (beta-catenin; first column): 0; Target Concentration BLANK (phage screen NGS readout) (beta-catenin; fourth column): 0; Target Concentration BLANK (phage screen NGS readout) (beta-catenin; second column): 1; Target Concentration BLANK (phage screen NGS readout) (beta-catenin; third column): 0; Target Concentration 10 (phage screen NGS readout) (beta-catenin): 0; Target Concentration 30 (phage screen NGS readout) (beta-catenin): 13; Target Concentration 100 (phage screen NGS readout) (beta-catenin): 37; Target Concentration 300 (phage screen NGS readout) (beta-catenin): 109; Target Concentration 1000 (phage screen NGS readout) (beta-catenin; first 1000 column): 177; Target Concentration 1000 (phage screen NGS readout) (beta-catenin; second 1000 column): 82
DPAWMDCLYAAYDCQHM | 2 | 2 | 0 | 9 | 29 | 24 | 1 | 1 | 1 | 0 | 0 | –
DPADWDCMYAAQDCFED | 0 | 0 | 1 | 1 | 11 | 1 | 0 | 0 | 0 | 0 | 0 | –
DPAAWECHIAAFVCSTY | 1 | 1 | 0 | 2 | 8 | 7 | 0 | 0 | 0 | 0 | 0 | –
DPALVTCTWAAIYCDDF | 1 | 1 | 2 | 1 | 4 | 10 | 0 | 1 | 0 | 2 | 0 | –
DPAWEHCLYAAYDCTHE | 0 | 1 | 0 | 2 | 10 | 15 | 0 | 4 | 0 | 0 | 0 | –
